Experimental findings from the Immune Epitope Database (IEDB) are described below.

One experiment deals with HLA-B*48:01. Description: IEDB peptide-MHC binding, purified MHC/direct/fluorescence; filed as Kd, often an IC50 or EC50 that approximates it; ≥ and ≤ were set here for values at or beyond the usual limits of such assays.
A further experiment addresses HLA-A*01:01. The experiment is described as above.
A further experiment deals with HLA-A*31:01. The experiment is described as above.
For the next experiment, the target named is HLA-B*08:03. The experiment is described as above.
The target in experiment [1] is HLA-B*39:01. Described as above.
In a further experiment the target is HLA-B*58:01. Described as above.
The target of the next experiment is HLA-B*15:02. The description is as above.
The target in a further experiment is HLA-B*57:01. The description is as above.
The target of the next experiment is HLA-B*27:05. The experiment is described as above.
The target of a further experiment is HLA-A*11:01. The description is as above.
A further experiment addresses HLA-A*69:01. The description is as above.
For experiment [2], the target named is HLA-A*02:01. The experiment is described as above.
The next experiment addresses HLA-B*15:17. The description is as above.
In another experiment the target is HLA-B*08:02. The experiment is described as above.
The target of a further experiment is HLA-B*46:01. The experiment is described as above.
The target in another experiment is HLA-B*15:01. The description is as above.
For the next experiment, the target named is HLA-B*08:01. Described as above. The following applies: source organism: Influenza A virus (A/Quail/Shanghai/8/96(H9N2)).
Experiment [3] addresses HLA-A*68:02. The experiment is described as above. The following applies: source organism: Influenza A virus (A/Quail/Shanghai/8/96(H9N2)).
A further experiment concerns the target HLA-B*07:02. Described as above.
The target in experiment [4] is HLA-B*35:01. Described as above. The following applies: source organism: Influenza A virus (A/Quail/Shanghai/8/96(H9N2)).
The next experiment deals with HLA-A*26:01. Description: IEDB peptide-MHC binding, purified MHC/competitive/fluorescence; filed as Kd, often an IC50 or EC50 that approximates it; ≥ and ≤ were set here for values at or beyond the usual limits of such assays.
A further experiment concerns the target HLA-A*26:02. Described as above.
A further experiment has as its target HLA-C*12:03. Description: IEDB peptide-MHC binding, purified MHC/direct/fluorescence; filed as Kd, often an IC50 or EC50 that approximates it; ≥ and ≤ were set here for values at or beyond the usual limits of such assays.
A further experiment addresses HLA-C*08:02. The description is as above.
For experiment [5], the target named is HLA-A*02:01. The experiment is described as follows: IEDB peptide-MHC binding, purified MHC/competitive/fluorescence; filed as Kd, often an IC50 or EC50 that approximates it; ≥ and ≤ were set here for values at or beyond the usual limits of such assays.
The target in experiment [6] is HLA-A*02:01. The experiment is described as follows: IEDB peptide-MHC binding, purified MHC/competitive/radioactivity; ≥ and ≤ were set here for values at or beyond the usual limits of such assays. The following applies: source organism: Rhinovirus C.
Another experiment addresses HLA-A*30:01. Description: IEDB peptide-MHC binding, purified MHC/competitive/fluorescence; filed as Kd, often an IC50 or EC50 that approximates it; ≥ and ≤ were set here for values at or beyond the usual limits of such assays. The following applies: source organism: Zaire ebolavirus.
In experiment [7] the target is HLA-A*68:02. Described as above. The note with it: source organism: Zaire ebolavirus.
For experiment [8], the target named is HLA-B*35:01. Described as above. The following applies: source organism: Zaire ebolavirus.
For the next experiment, the target named is HLA-C*06:02. Description: IEDB peptide-MHC binding, purified MHC/direct/fluorescence; filed as Kd, often an IC50 or EC50 that approximates it; ≥ and ≤ were set here for values at or beyond the usual limits of such assays.
In a further experiment the target is HLA-C*05:01. The experiment is described as above. The note with it: source organism: Salmonella enterica subsp. enterica serovar Typhi str. CT18.
A further experiment has as its target HLA-C*03:03. Described as above. The note with it: source organism: Salmonella enterica subsp. enterica serovar Typhi str. CT18.
The target in experiment [9] is HLA-B*39:01. Description: IEDB peptide-MHC binding, purified MHC/competitive/fluorescence; filed as Kd, often an IC50 or EC50 that approximates it; ≥ and ≤ were set here for values at or beyond the usual limits of such assays.
The target of another experiment is HLA-A*68:23. The description is as above. The following applies: source organism: Salmonella enterica subsp. enterica serovar Typhi.
The target of a further experiment is HLA-B*45:06. The description is as above. The following applies: source organism: Salmonella enterica subsp. enterica serovar Typhi.
The next experiment deals with HLA-B*83:01. The description is as above. The following applies: source organism: Salmonella enterica subsp. enterica serovar Typhi.
In another experiment the target is HLA-B*15:42. Described as above. The following applies: source organism: Salmonella enterica subsp. enterica serovar Typhi.
Another experiment addresses HLA-A*32:07. The experiment is described as above. The following applies: source organism: Salmonella enterica subsp. enterica serovar Typhi.
The target in another experiment is HLA-A*32:15. Described as above. The note with it: source organism: Salmonella enterica subsp. enterica serovar Typhi.
Another experiment addresses HLA-C*14:02. Described as above. The note with it: source organism: Salmonella enterica subsp. enterica serovar Typhi.
[10] abbreviates: source organism: Influenza A virus (A/Quail/Shanghai/8/96(H9N2)).
Setting [11] is: source organism: Pseudomonas aeruginosa PACS2.
[12] abbreviates: source organism: Pseudomonas putida.
Where [13] appears, read: source organism: Escherichia coli 536.
Setting [14] is: source organism: Ebola virus - Mayinga, Zaire, 1976.
Setting [15] is: source organism: Ravn virus - Ravn, Kenya, 1987.
Setting [16] is: source organism: Zaire ebolavirus.
Setting [17] is: source organism: Salmonella enterica subsp. enterica serovar Typhi.
Where [18] appears, read: source organism: Salmonella enterica.

Turning to LVGGREWSY, the Kd with HLA-B*48:01 (setting [10]), with HLA-A*01:01 (setting [10]), with HLA-A*31:01 (setting [10]), in the experiment with HLA-B*08:03 (setting [10]), with HLA-B*39:01 [1] (setting [10]) and in the experiment with HLA-B*58:01 (setting [10]) was at least 20000 nM throughout. For the same sequence, the Kd in the experiment with HLA-B*15:02 (setting [10]) was at least 20000 nM; with HLA-B*57:01 (setting [10]), 1300 nM; with HLA-B*27:05 (setting [10]), at least 20000 nM; in the experiment with HLA-A*11:01 (setting [10]) it was at least 20000 nM; with HLA-A*69:01 (setting [10]), at least 20000 nM; with HLA-A*02:01 [2] (setting [10]), at least 20000 nM. For the same sequence, the Kd with HLA-B*15:17 (setting [10]) was 1890 nM; in the experiment with HLA-B*08:02 (setting [10]), at least 20000 nM; with HLA-B*46:01 (setting [10]) it was at least 20000 nM; with HLA-B*15:01 (setting [10]) it was 1190 nM; with HLA-B*08:01, at least 20000 nM; in the experiment with HLA-A*68:02 [3], at least 20000 nM. The Kd is at least 20000 nM with HLA-B*07:02 (setting [10]), 843 nM with HLA-B*35:01 [4], at least 20000 nM with HLA-A*26:01 (setting [10]) and at least 20000 nM in the experiment with HLA-A*26:02 (setting [10]).

As to IVHPPMLYM, the Kd was 62 nM in the experiment with HLA-C*12:03 (setting [11]); 5980 nM with HLA-B*58:01 (setting [12]); 2170 nM with HLA-B*57:01 (source organism: Vibrio vulnificus CMCP6); at least 20000 nM with HLA-C*08:02 (setting [11]); 61.1 nM with HLA-B*15:17 (setting [12]).

As to LLDEYRDYI, the figures for the Kd with HLA-C*08:02 (setting [13]) and with HLA-A*02:01 [5] (setting [13]) were at least 20000 nM and 1.1 nM, respectively.

For the sequence GLEPLDLNT, the IC50 in the experiment with HLA-A*02:01 [6] came to 500 nM.

As for FIYFGKKQY, the Kd with HLA-B*48:01 (setting [14]) is at least 20000 nM; in the experiment with HLA-A*01:01 (setting [14]), 451 nM; with HLA-A*31:01 (setting [14]), at least 20000 nM; in the experiment with HLA-B*08:03 (setting [15]), at least 20000 nM; in the experiment with HLA-B*39:01 [1] (setting [15]), at least 20000 nM; with HLA-B*58:01 (setting [14]), at least 20000 nM. In addition, the Kd in the experiment with HLA-B*15:02 (setting [15]) is 8 nM; in the experiment with HLA-B*57:01 (setting [14]) it was 7130 nM; in the experiment with HLA-B*27:05 (setting [14]), at least 20000 nM; in the experiment with HLA-A*11:01 (setting [14]) it was at least 20000 nM; with HLA-A*69:01 (setting [14]), at least 20000 nM; with HLA-A*02:01 [2] (setting [14]) it was at least 20000 nM. Further, the Kd with HLA-B*15:17 (setting [14]) was 135 nM; with HLA-B*08:02 (setting [15]) it was at least 20000 nM; with HLA-B*46:01 (setting [14]), at least 20000 nM; with HLA-B*15:01 (setting [14]) it was 67 nM; in the experiment with HLA-B*07:02 (setting [14]) it was at least 20000 nM; with HLA-A*26:01 (setting [16]), 2300 nM. Also, the Kd with HLA-A*30:01 is at least 20000 nM; with HLA-A*68:02 [7], 4980 nM; in the experiment with HLA-B*35:01 [8] it was 1490 nM; with HLA-A*26:02 (setting [16]), at least 20000 nM.

In the experiment with HLA-C*06:02 (source organism: Variola virus), FQYLLPGFVL yielded a Kd of 8620 nM.

With WTFTPTTPL, the dissociation constant Kd with HLA-C*12:03 (source organism: Salmonella enterica subsp. enterica serovar Typhi str. CT18) was 212 nM; with HLA-C*05:01, at least 20000 nM; with HLA-C*03:03, at most 1 nM; in the experiment with HLA-B*39:01 [9] (setting [17]), 469 nM; with HLA-A*68:23 it was 0.4 nM; with HLA-B*45:06 it was at least 5000 nM. For the same sequence, the Kd with HLA-B*83:01 is at least 5000 nM; in the experiment with HLA-B*15:42, at least 5000 nM; with HLA-A*26:01 (setting [17]), 581 nM; with HLA-A*32:07, 765 nM; in the experiment with HLA-A*02:01 [5] (setting [17]) it was 5.8 nM; in the experiment with HLA-A*32:15, 57.5 nM. In the experiment with HLA-C*14:02, this sequence yielded a Kd of 38.5 nM.

YRYISFLVL: the Kd in the experiment with HLA-C*06:02 (setting [18]) is 651 nM; in the experiment with HLA-B*39:01 [9] (setting [18]) it was 536 nM.

In general, Kd refers to the constant that tells how readily two partners part at equilibrium. A higher Kd goes with lower affinity. Broadly, the IC50 is the concentration that gives 50% inhibition.
